Measurements: patent US20250313631A1 (HUMMINGBIRD BIOSCIENCE PTE, published 2025)

Key:
human B7H3 = target: T1, human B7H3 (human, UniProt Q5ZPR3 29-461, limits assumed); experiment: ELISA, plate coated with the antigen
T1 construct: also called CD276
T1 sequence (looked up): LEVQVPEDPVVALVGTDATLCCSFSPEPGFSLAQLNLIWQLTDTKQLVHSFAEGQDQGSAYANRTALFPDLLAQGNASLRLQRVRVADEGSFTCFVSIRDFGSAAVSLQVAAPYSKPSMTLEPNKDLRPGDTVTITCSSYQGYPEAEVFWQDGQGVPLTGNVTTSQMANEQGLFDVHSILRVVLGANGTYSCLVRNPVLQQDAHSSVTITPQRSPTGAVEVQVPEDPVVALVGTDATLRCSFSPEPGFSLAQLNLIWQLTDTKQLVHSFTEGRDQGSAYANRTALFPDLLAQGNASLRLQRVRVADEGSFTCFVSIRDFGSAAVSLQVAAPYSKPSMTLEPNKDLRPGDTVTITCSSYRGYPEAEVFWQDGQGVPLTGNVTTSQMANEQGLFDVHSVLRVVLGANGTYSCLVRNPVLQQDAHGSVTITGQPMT

human CTLA4 = human CTLA4 (human, UniProt P16410 36-162); experiment: ELISA, plate coated with the antigen
human CTLA4, sequence (P16410 36-162 limits assumed): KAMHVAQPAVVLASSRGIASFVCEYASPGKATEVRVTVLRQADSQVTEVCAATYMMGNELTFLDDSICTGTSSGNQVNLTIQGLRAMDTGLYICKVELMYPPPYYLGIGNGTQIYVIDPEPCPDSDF

human B7H7 = target: T2, human B7H7 (human, UniProt Q9UM44 23-344); experiment: ELISA, plate coated with the antigen
T2 construct: also called HHLA2
T2 sequence (looked up): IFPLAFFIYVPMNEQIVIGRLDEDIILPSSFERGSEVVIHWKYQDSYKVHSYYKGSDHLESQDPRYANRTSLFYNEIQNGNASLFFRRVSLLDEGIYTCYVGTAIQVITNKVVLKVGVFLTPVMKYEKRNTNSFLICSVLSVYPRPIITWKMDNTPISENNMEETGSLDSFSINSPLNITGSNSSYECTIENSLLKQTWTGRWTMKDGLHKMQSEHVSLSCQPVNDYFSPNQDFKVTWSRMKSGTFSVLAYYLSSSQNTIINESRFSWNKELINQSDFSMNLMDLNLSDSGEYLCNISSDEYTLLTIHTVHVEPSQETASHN

human B7H6 = target: T3, human B7H6 (human, UniProt Q68D85 25-262); experiment: ELISA, plate coated with the antigen
T3 construct: also called NCR3LG1
T3 sequence (looked up): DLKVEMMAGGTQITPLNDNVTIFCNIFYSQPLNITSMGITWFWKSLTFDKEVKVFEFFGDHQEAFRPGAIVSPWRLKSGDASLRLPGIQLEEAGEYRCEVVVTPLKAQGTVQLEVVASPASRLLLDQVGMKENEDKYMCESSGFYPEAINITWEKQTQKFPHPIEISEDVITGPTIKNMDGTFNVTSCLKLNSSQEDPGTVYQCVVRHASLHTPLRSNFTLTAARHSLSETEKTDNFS

human B7H4 = target: T4, human B7H4 (human, UniProt Q7Z7D3 25-258, limits assumed); experiment: ELISA, plate coated with the antigen
T4 construct: also called VTCN1
T4 sequence (looked up): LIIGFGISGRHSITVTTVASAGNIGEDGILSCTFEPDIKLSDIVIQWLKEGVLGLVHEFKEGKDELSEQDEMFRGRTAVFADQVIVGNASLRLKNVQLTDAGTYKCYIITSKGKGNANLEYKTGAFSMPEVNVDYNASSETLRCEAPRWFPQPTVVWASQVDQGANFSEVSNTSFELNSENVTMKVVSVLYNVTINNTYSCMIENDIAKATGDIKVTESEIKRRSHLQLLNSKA

human PD-1 = human PD-1 (human, UniProt Q15116 25-167); experiment: ELISA, plate coated with the antigen
human PD-1, sequence (Q15116 25-167 limits assumed): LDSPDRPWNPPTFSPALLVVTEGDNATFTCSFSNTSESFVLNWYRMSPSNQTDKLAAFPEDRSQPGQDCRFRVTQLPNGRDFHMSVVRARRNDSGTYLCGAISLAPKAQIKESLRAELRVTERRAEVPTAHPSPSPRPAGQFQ

[1] = target: T5, recombinant human VISTA (His-tagged) (human, UniProt Q9H7M9 33-194); experiment: antigen-binding ELISA; HMBD-002 in F2, day 10 at 40°C
T5 construct: bought soluble protein (Sino Biological); also called hVISTA; human VISTA polypeptide

[2] = target: T5, recombinant human VISTA (His-tagged); experiment: antigen-binding ELISA; HMBD-002 in F2, day 20 at 40°C
[3] = target: T5, recombinant human VISTA (His-tagged); experiment: antigen-binding ELISA; HMBD-002 in F3, day 10 at 40°C
[4] = target: T5, recombinant human VISTA (His-tagged); experiment: antigen-binding ELISA; HMBD-002 in F6, day 10 at 40°C
[5] = target: T5, recombinant human VISTA (His-tagged); experiment: antigen-binding ELISA; HMBD-002 in F1, day 30 at 40°C
[6] = target: T5, recombinant human VISTA (His-tagged); experiment: antigen-binding ELISA; HMBD-002 in F4, day 30 at 40°C
[7] = target: T6, recombinant cynomolgus macaque VISTA (His-tagged) (cynomolgus macaque, UniProt A0A7N9IB00 33-194); experiment: SPR (Biacore), NHP VISTA-HIS captured, antibody as analyte, 1:1 model; SPR (Biacore), NHP (cynomolgus) VISTA
T6 construct: also called cyno VISTA; cynomolgus monkey VISTA

[8] = target: T5, recombinant human VISTA (His-tagged); experiment: antigen-binding ELISA, day 30 at 40°C
[9] = target: T5, recombinant human VISTA (His-tagged); experiment: antigen-binding ELISA; HMBD-002 in F7, day 10 at 40°C
[10] = target: T5, recombinant human VISTA (His-tagged); experiment: ELISA on coated human VISTA, antibody diluted in buffer of pH 6
[11] = target: T5, recombinant human VISTA (His-tagged); experiment: antigen-binding ELISA; HMBD-002 10 mg/mL in F8, day 0
[12] = target: T5, recombinant human VISTA (His-tagged); experiment: BLI (Octet QK384): His-tagged human VISTA on anti-Penta-HIS tips, V4 1000 to 31.3 nM as analyte, global fit; value of the table column kdis(1/s)

B1: anti-VISTA clone V4-C27 IgG1 (antibody, V domains shown)
VH: QVQLQESGPGLVKPSDTLSLTCTVSGYSITSDYTWNWIRQTPGKGLEWIGHITYSGSVSYNPSLRSRVTISRDTSKNQFSLKLSSVTAADTATYSCARALYYPWYFDVWGTGTTVTVSS
VL: EIVLTQSPATLSLSPGERATLSCRASSSVGYIHWYQQKPGQAPRPLIYATYNRATGIPARFSGSGSGTDNTLTISSLEPEDSAVYYCQQWSSYPPITFGGGTKLEVKR
B1: no binding (tested: log -7.5 M) (human B7H3); no binding (tested: log -7.5 M) (human CTLA4); no binding (tested: log -7.5 M) (human B7H7). B1: no binding (tested: log -7.5 M) (human B7H6); no binding (tested: log -7.5 M) (human B7H4); no binding (tested: log -7.5 M) (human PD-1).

B2: V4-C26 hIgG4 (antibody)
heavy: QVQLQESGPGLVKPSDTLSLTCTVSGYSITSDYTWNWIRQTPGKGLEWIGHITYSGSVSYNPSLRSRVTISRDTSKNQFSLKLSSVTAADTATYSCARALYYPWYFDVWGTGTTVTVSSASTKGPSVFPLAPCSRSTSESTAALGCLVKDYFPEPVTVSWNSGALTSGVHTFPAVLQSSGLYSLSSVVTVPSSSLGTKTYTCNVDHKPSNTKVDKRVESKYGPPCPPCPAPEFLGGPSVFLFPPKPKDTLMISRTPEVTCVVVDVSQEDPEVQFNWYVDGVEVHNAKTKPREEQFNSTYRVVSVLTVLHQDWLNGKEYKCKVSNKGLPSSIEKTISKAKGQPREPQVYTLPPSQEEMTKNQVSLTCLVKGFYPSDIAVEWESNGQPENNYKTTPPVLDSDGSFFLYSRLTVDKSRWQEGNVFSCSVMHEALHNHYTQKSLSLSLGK
light: EIVLTQSPATLSLSPGERATLSCRASSSVGYIHWYQQKPGQAPRPIIYTTSNRATGIPARFSGSGSGTDNTLTISSLEPEDSAVYYCQQWSSYPPITFGGGTKLEVKRTVAAPSVFIFPPSDEQLKSGTASVVCLLNNFYPREAKVQWKVDNALQSGNSQESVTEQDSKDSTYSLSSTLTLSKADYEKHKVYACEVTHQGLSSPVTKSFNRGEC
notes: human IgG4 (S228P)/kappa format; also called HMBD-002; HMBD-002-V4C26
Binder B2 has an EC50 [1] of 0.0322 nM, an EC50 [2] of 0.0197 nM and an EC50 [3] of 0.0348 nM. For the same binder, the EC50 [4] was 0.0306 nM, the EC50 [5] was 0.0215 nM and the EC50 [6] was 0.0227 nM. For the same binder, the Kd [7] was 0.367 nM, the “fold increase in affinity” value [8] was 1.65 fold and the EC50 [9] was 0.0339 nM. The EC50 [10] was 0.0589 nM and the EC50 [11] was 0.0395 nM.

B3: anti-VISTA clone 4M2-C12 IgG1 (antibody)
heavy: not shown
light: DIVITQTPAILSTSPGEKVTMTCRASSSVGYIHWYQQKPGSSPKPWIYATSNLASGVPARFSGSGSGTSNSLTITRVEAEDAATYYCQQWSSYPPITFGGGTKLEVKRTVAAPSVFIFPPSDEQLKSGTASVVCLLNNFYPREAKVQWKVDNALQSGNSQESVTEQDSKDSTYSLSSTLTLSKADYEKHKVYACEVTHQGLSSPVTKSFNRGEC
notes: mouse variable regions on human IgG1/kappa constant regions; also called V4; V4pr
B3 showed a koff [12] of under 1e-07 s⁻¹.
